# Source: paper PMC9482650, “Quantitative fragmentomics allow affinity mapping of interactomes” (Nature Communications, 2022)
# T1: CARD11, Q9BXL7
# T1 sequence (Q9BXL7 662-765, limits assumed, looked up): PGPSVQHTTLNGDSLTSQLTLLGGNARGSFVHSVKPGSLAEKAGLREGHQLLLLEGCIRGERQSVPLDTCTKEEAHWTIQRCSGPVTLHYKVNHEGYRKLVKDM
# T2: DFNB31_1, Q9P202
# T2 sequence (Q9P202 135-233, limits assumed, looked up): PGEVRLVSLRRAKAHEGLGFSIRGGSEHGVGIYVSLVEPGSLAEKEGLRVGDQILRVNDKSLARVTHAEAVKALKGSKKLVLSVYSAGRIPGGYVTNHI
# T3: GRIP1_2, Q9Y3R0
# T3 sequence (Q9Y3R0 145-248, limits assumed, looked up): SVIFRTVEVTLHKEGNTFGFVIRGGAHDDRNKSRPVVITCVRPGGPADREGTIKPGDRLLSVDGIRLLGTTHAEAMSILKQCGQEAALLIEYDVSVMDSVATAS
# T4: GRIP1_7, Q9Y3R0
# T4 sequence (Q9Y3R0 999-1096, limits assumed, looked up): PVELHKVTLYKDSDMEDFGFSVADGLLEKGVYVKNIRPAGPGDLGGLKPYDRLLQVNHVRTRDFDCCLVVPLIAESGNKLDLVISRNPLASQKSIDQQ
# T5: LRRC7, Q96NW7
# T5 sequence (Q96NW7 1440-1537, limits assumed, looked up): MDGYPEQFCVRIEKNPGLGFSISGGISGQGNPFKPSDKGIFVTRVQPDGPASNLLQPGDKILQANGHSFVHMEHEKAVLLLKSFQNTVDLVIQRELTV
# T6: MPDZ_10, O75970
# T6 sequence (O75970 1624-1722, limits assumed, looked up): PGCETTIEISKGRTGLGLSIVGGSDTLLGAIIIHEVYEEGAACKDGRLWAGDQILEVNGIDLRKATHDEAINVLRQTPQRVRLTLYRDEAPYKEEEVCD
# T7: MPDZ_5, O75970
# T7 sequence (O75970 695-796, limits assumed, looked up): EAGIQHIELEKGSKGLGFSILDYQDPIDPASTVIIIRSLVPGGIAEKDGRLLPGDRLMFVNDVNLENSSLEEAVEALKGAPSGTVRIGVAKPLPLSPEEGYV
# T8: MPP6, Q9NZW5
# T8 sequence (Q9NZW5 125-219, limits assumed, looked up): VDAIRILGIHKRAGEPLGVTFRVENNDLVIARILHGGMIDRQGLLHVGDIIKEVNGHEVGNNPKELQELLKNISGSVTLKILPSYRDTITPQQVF
# T9: MPP7, Q5T2T1
# T9 sequence (Q5T2T1 134-230, limits assumed, looked up): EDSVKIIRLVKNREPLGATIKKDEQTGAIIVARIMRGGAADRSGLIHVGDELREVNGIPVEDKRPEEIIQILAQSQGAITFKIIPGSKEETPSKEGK
# T10: RADIL, Q96JH8
# T10 sequence (Q96JH8 971-1071, limits assumed, looked up): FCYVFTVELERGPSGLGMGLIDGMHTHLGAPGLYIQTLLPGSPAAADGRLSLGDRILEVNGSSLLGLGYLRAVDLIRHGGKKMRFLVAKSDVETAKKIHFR
# T11: RAPGEF6, Q8TEU7
# T11 sequence (Q8TEU7 525-625, limits assumed, looked up): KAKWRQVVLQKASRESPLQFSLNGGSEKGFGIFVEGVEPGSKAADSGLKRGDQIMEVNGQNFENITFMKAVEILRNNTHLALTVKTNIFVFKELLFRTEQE
# B1: PRKD2, Q9BZL6 (peptide)
# chain: QGLAERISVL
# B2: TRPV3, Q8NET8 (peptide)
# chain: EVEEFPETSV
# B3: NLGN2, Q8NFZ4 (peptide)
# chain: LPHPHSTTRV
# B4: CLDN1, O95832 (peptide)
# chain: PAPSSGKDYV
# Target: T1, CARD11, Q9BXL7
# Assay: holdup assay
# Design: key: below the threshold = too weak to quantify, mostly under pKd 3.1 to 4
# Details: plain residues with an end cap or a label only (N-terminal biotin on a linker: ado-ado)
row,Binder,pKd
1,B1,below the threshold
2,B2,3.49
3,B3,below the threshold
4,B4,below the threshold

# Target: T2, DFNB31_1, Q9P202
# Assay: holdup assay
# Design: key: below the threshold = too weak to quantify, mostly under pKd 3.1 to 4
# Details: plain residues with an end cap or a label only (N-terminal biotin on a linker: ado-ado)
row,Binder,pKd
1,B1,below the threshold
2,B2,4.86
3,B3,4.13
4,B4,below the threshold

# Target: DLG4_2, P78352
# Sequence (P78352 155-259): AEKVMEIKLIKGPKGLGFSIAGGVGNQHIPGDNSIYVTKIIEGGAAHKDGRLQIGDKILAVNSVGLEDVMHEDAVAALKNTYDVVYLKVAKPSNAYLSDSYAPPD
# Assay: holdup assay
# Design: key: below the threshold = too weak to quantify, mostly under pKd 3.1 to 4
# Details: plain residues with an end cap or a label only (N-terminal biotin on a linker: ado-ado)
row,Binder,pKd
1,B1,3.48
2,B2,4.4
3,B3,3.86
4,B4,below the threshold

# Target: FRMPD2_2, Q68DX3
# Sequence (Q68DX3 944-1038): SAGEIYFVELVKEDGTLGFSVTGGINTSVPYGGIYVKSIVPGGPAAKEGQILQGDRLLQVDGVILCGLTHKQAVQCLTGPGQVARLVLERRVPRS
# Assay: holdup assay
# Design: key: below the threshold = too weak to quantify, mostly under pKd 3.1 to 4
# Details: plain residues with an end cap or a label only (N-terminal biotin on a linker: ado-ado)
row,Binder,pKd
1,B1,below the threshold
2,B2,5.16
3,B3,3.59
4,B4,below the threshold

# Target: FRMPD3, Q5JV73
# Sequence (Q5JV73 12-100): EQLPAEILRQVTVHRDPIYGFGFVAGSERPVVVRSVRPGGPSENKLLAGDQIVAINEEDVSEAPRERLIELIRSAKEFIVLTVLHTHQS
# Assay: holdup assay
# Design: key: below the threshold = too weak to quantify, mostly under pKd 3.1 to 4
# Details: plain residues with an end cap or a label only (N-terminal biotin on a linker: ado-ado)
row,Binder,pKd
1,B1,below the threshold
2,B2,3.59
3,B3,below the threshold
4,B4,below the threshold

# Target: FRMPD4, Q14CM0
# Sequence (Q14CM0 67-160): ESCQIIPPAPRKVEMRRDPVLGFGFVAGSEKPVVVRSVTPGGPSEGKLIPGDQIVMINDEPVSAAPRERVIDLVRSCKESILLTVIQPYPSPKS
# Assay: holdup assay
# Design: key: below the threshold = too weak to quantify, mostly under pKd 3.1 to 4
# Details: plain residues with an end cap or a label only (N-terminal biotin on a linker: ado-ado)
row,Binder,pKd
1,B1,3.83
2,B2,3.74
3,B3,below the threshold
4,B4,3.59

# Target: GOPC, Q9HD26
# Assay: holdup assay
# Design: key: below the threshold = too weak to quantify, mostly under pKd 3.1 to 4
# Details: plain residues with an end cap or a label only (N-terminal biotin on a linker: ado-ado)
row,Binder,pKd
1,B1,3.98
2,B2,4.22
3,B3,4.28
4,B4,below the threshold

# Target: T3, GRIP1_2, Q9Y3R0
# Assay: holdup assay
# Design: key: below the threshold = too weak to quantify, mostly under pKd 3.1 to 4
# Details: plain residues with an end cap or a label only (N-terminal biotin on a linker: ado-ado)
row,Binder,pKd
1,B1,below the threshold
2,B2,3.59
3,B3,below the threshold
4,B4,below the threshold

# Target: T4, GRIP1_7, Q9Y3R0
# Assay: holdup assay
# Design: key: below the threshold = too weak to quantify, mostly under pKd 3.1 to 4
# Details: plain residues with an end cap or a label only (N-terminal biotin on a linker: ado-ado)
row,Binder,pKd
1,B1,below the threshold
2,B2,3.48
3,B3,below the threshold
4,B4,3.87

# Target: GRIP2_6, Q9C0E4
# Sequence (Q9C0E4 648-740): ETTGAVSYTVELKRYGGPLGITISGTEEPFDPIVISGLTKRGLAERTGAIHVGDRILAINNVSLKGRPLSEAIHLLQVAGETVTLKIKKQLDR
# Assay: holdup assay
# Design: key: below the threshold = too weak to quantify, mostly under pKd 3.1 to 4
# Details: plain residues with an end cap or a label only (N-terminal biotin on a linker: ado-ado)
row,Binder,pKd
1,B1,below the threshold
2,B2,below the threshold
3,B3,below the threshold
4,B4,below the threshold

# Target: HTRA2, O43464
# Sequence (O43464 355-458): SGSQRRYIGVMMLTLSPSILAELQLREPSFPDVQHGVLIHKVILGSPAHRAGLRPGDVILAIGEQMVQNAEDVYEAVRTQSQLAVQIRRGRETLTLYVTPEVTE
# Assay: holdup assay
# Design: key: below the threshold = too weak to quantify, mostly under pKd 3.1 to 4
# Details: plain residues with an end cap or a label only (N-terminal biotin on a linker: ado-ado)
row,Binder,pKd
1,B1,below the threshold
2,B2,below the threshold
3,B3,below the threshold
4,B4,below the threshold

# Target: IL16_1, Q14005
# Sequence (Q14005 210-306): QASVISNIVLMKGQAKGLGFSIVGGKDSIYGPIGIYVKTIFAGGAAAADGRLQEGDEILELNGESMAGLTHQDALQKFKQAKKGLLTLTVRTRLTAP
# Assay: holdup assay
# Design: key: below the threshold = too weak to quantify, mostly under pKd 3.1 to 4
# Details: plain residues with an end cap or a label only (N-terminal biotin on a linker: ado-ado)
row,Binder,pKd
1,B1,4.16
2,B2,4.17
3,B3,below the threshold
4,B4,below the threshold

# Target: Inadl_2, Q8NI35
# Sequence (Q8NI35 238-335): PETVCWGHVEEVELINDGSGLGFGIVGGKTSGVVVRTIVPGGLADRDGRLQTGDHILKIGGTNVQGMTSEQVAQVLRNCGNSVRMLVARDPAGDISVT
# Assay: holdup assay
# Design: key: below the threshold = too weak to quantify, mostly under pKd 3.1 to 4
# Details: plain residues with an end cap or a label only (N-terminal biotin on a linker: ado-ado)
row,Binder,pKd
1,B1,below the threshold
2,B2,below the threshold
3,B3,below the threshold
4,B4,below the threshold

# Target: Inadl_4, Q8NI35
# Sequence (Q8NI35 547-651): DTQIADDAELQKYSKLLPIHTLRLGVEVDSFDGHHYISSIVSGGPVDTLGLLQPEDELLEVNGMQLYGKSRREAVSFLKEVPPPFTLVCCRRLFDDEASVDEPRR
# Assay: holdup assay
# Design: key: below the threshold = too weak to quantify, mostly under pKd 3.1 to 4
# Details: plain residues with an end cap or a label only (N-terminal biotin on a linker: ado-ado)
row,Binder,pKd
1,B1,below the threshold
2,B2,3.49
3,B3,below the threshold
4,B4,below the threshold

# Target: LDB3, O75112
# Sequence (O75112 1-94): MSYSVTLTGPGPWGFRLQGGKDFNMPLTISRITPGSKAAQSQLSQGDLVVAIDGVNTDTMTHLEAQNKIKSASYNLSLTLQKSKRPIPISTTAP
# Assay: holdup assay
# Design: key: below the threshold = too weak to quantify, mostly under pKd 3.1 to 4
# Details: plain residues with an end cap or a label only (N-terminal biotin on a linker: ado-ado)
row,Binder,pKd
1,B1,below the threshold
2,B2,below the threshold
3,B3,below the threshold
4,B4,below the threshold

# Target: T5, LRRC7, Q96NW7
# Assay: holdup assay
# Design: key: below the threshold = too weak to quantify, mostly under pKd 3.1 to 4
# Details: plain residues with an end cap or a label only (N-terminal biotin on a linker: ado-ado)
row,Binder,pKd
1,B1,below the threshold
2,B2,4.08
3,B3,below the threshold
4,B4,below the threshold

# Target: MAGI2_5, Q86UL8
# Sequence (Q86UL8 915-1017): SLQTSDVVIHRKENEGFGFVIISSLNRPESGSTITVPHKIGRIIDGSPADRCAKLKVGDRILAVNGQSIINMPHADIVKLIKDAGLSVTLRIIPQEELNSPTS
# Assay: holdup assay
# Design: key: below the threshold = too weak to quantify, mostly under pKd 3.1 to 4
# Details: plain residues with an end cap or a label only (N-terminal biotin on a linker: ado-ado)
row,Binder,pKd
1,B1,4.13
2,B2,3.82
3,B3,below the threshold
4,B4,below the threshold

# Target: MAGI3_2, Q5TCQ9
# Sequence (Q5TCQ9 398-503): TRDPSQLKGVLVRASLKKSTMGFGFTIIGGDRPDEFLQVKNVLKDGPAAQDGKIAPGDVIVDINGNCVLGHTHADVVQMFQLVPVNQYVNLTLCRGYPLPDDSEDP
# Assay: holdup assay
# Design: key: below the threshold = too weak to quantify, mostly under pKd 3.1 to 4
# Details: plain residues with an end cap or a label only (N-terminal biotin on a linker: ado-ado)
row,Binder,pKd
1,B1,below the threshold
2,B2,4.27
3,B3,5.12
4,B4,below the threshold

# Target: MAST1, Q9Y2H9
# Sequence (Q9Y2H9 962-1065): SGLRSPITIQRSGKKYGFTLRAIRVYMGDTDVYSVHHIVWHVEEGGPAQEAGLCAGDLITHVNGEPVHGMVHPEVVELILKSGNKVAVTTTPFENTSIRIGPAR
# Assay: holdup assay
# Design: key: below the threshold = too weak to quantify, mostly under pKd 3.1 to 4
# Details: plain residues with an end cap or a label only (N-terminal biotin on a linker: ado-ado)
row,Binder,pKd
1,B1,4.52
2,B2,4.21
3,B3,4.64
4,B4,3.51

# Target: T6, MPDZ_10, O75970
# Assay: holdup assay
# Design: key: below the threshold = too weak to quantify, mostly under pKd 3.1 to 4
# Details: plain residues with an end cap or a label only (N-terminal biotin on a linker: ado-ado)
row,Binder,pKd
1,B1,3.76
2,B2,3.56
3,B3,3.62
4,B4,below the threshold

# Target: T7, MPDZ_5, O75970
# Assay: holdup assay
# Design: key: below the threshold = too weak to quantify, mostly under pKd 3.1 to 4
# Details: plain residues with an end cap or a label only (N-terminal biotin on a linker: ado-ado)
row,Binder,pKd
1,B1,below the threshold
2,B2,3.56
3,B3,below the threshold
4,B4,below the threshold

# Target: T8, MPP6, Q9NZW5
# Assay: holdup assay
# Design: key: below the threshold = too weak to quantify, mostly under pKd 3.1 to 4
# Details: plain residues with an end cap or a label only (N-terminal biotin on a linker: ado-ado)
row,Binder,pKd
1,B1,below the threshold
2,B2,below the threshold
3,B3,below the threshold
4,B4,3.88

# Target: T9, MPP7, Q5T2T1
# Assay: holdup assay
# Design: key: below the threshold = too weak to quantify, mostly under pKd 3.1 to 4
# Details: plain residues with an end cap or a label only (N-terminal biotin on a linker: ado-ado)
row,Binder,pKd
1,B1,below the threshold
2,B2,3.57
3,B3,below the threshold
4,B4,below the threshold

# Target: NHERF4_1, Q86UT5-2
# Sequence (Q86UT5 other isoform, or with tags, fused parts or gaps): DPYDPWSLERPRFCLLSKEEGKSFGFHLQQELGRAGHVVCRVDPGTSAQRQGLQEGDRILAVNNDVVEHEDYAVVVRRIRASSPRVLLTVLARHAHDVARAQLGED
# Assay: holdup assay
# Design: key: below the threshold = too weak to quantify, mostly under pKd 3.1 to 4
# Details: plain residues with an end cap or a label only (N-terminal biotin on a linker: ado-ado)
row,Binder,pKd
1,B1,4.27
2,B2,below the threshold
3,B3,below the threshold
4,B4,3.62

# Target: T10, RADIL, Q96JH8
# Assay: holdup assay
# Design: key: below the threshold = too weak to quantify, mostly under pKd 3.1 to 4
# Details: plain residues with an end cap or a label only (N-terminal biotin on a linker: ado-ado)
row,Binder,pKd
1,B1,3.99
2,B2,3.81
3,B3,3.87
4,B4,4

# Target: T11, RAPGEF6, Q8TEU7
# Assay: holdup assay
# Design: key: below the threshold = too weak to quantify, mostly under pKd 3.1 to 4
# Details: plain residues with an end cap or a label only (N-terminal biotin on a linker: ado-ado)
row,Binder,pKd
1,B1,below the threshold
2,B2,3.64
3,B3,below the threshold
4,B4,below the threshold
